Measurements from patent US20230140293A1.

Experiments:
Experiment in all cases: cell-based or functional assay
[1] = biological target: CH0505.w4.3 Env, Env-pseudotyped virus produced in 293T cells (HIV-1)
[2] = biological target: CH0505.w4.3 Env, pseudotyped virus produced in 293S GnTI- cells (HIV-1)
[3] = biological target: CH0505TF Env, Env-pseudotyped virus produced in 293T cells (HIV-1)
[4] = biological target: CH0505TF Env, pseudotyped virus produced in 293S GnTI- cells (HIV-1)
[5] = biological target: CH0505TF.G458Y Env, Env-pseudotyped virus produced in 293T cells (HIV-1)
[6] = biological target: CH0505TF.G458Y Env, pseudotyped virus produced in 293S GnTI- cells (HIV-1)
[7] = biological target: CH0505TF.gly3.197 Env, Env-pseudotyped virus produced in 293T cells (HIV-1)
[8] = biological target: CH0505TF.gly3.197 Env, pseudotyped virus produced in 293S GnTI- cells (HIV-1)
[9] = biological target: CH0505TF.gly3.276 Env, pseudotyped virus produced in 293S GnTI- cells (HIV-1)
[10] = biological target: CH0505TF.gly3.461 Env, Env-pseudotyped virus produced in 293T cells (HIV-1)
[11] = biological target: CH0505TF.gly3.461 Env, pseudotyped virus produced in 293S GnTI- cells (HIV-1)
[12] = biological target: CH0505TF.gly4 Env, Env-pseudotyped virus produced in 293T cells (HIV-1)
[13] = biological target: CH0505TF.gly4 Env, pseudotyped virus produced in 293S GnTI- cells (HIV-1)
[14] = biological target: HIV-1 426c.DM (N460D/N463D) Env on Env-pseudotyped virus produced in 293T cells (HIV-1)
[15] = biological target: HIV-1 426c.DM (N460D/N463D) Env on Env-pseudotyped virus produced in 293s/GnTI-/- cells (Man5-enrichment) (HIV-1)
[16] = biological target: HIV-1 426c.SM (N276D) Env on Env-pseudotyped virus produced in 293T cells (HIV-1)
[17] = biological target: HIV-1 426c.TM (N276D/N460D/N463D) Env on Env-pseudotyped virus produced in 293T cells (HIV-1)
[18] = biological target: HIV-1 426c.TM (N276D/N460D/N463D) Env on Env-pseudotyped virus produced in 293s/GnTI-/- cells (Man5-enrichment) (HIV-1)
[19] = biological target: HIV-1 CH0505TF (CH505 transmitted/founder) Env on Env-pseudotyped virus produced in 293T cells (HIV-1)
[20] = biological target: HIV-1 CH0505TF Env on Env-pseudotyped virus produced in 293S/GnTI-/- cells (Man5-enrichment) (HIV-1)
[21] = biological target: HIV-1 CH0505TF.gly3.197 Env on Env-pseudotyped virus produced in 293S/GnTI-/- cells (Man5-enrichment) (HIV-1)
[22] = biological target: HIV-1 CH0505TF.gly3.197 Env on Env-pseudotyped virus produced in 293T cells (HIV-1)
[23] = biological target: HIV-1 CH0505TF.gly4 Env on Env-pseudotyped virus produced in 293S/GnTI-/- cells (Man5-enrichment) (HIV-1)
[24] = biological target: HIV-1 CH0505TF.gly4 Env on Env-pseudotyped virus produced in 293T cells (HIV-1)
[25] = biological target: HIV-1 Env 426c, Env-pseudotyped virus produced in 293S GnTI- cells (Man5-enriched) (HIV-1 clade C strain 426c)
[26] = biological target: HIV-1 Env 426c, Env-pseudotyped virus produced in 293T cells (HIV-1 clade C strain 426c)
[27] = biological target: HIV-1 Env 426c.DM (N460D.N463D), Env-pseudotyped virus produced in 293S GnTI- cells (Man5-enriched) (HIV-1 clade C strain 426c)
[28] = biological target: HIV-1 Env 426c.DM (N460D.N463D), Env-pseudotyped virus produced in 293T cells (HIV-1 clade C strain 426c)
[29] = biological target: HIV-1 Env 426c.SM (N276D), Env-pseudotyped virus produced in 293S GnTI- cells (Man5-enriched) (HIV-1 clade C strain 426c)
[30] = biological target: HIV-1 Env 426c.SM (N276D), Env-pseudotyped virus produced in 293T cells (HIV-1 clade C strain 426c)
[31] = biological target: HIV-1 Env 426c.TM (N276D.N460D.N463D), Env-pseudotyped virus produced in 293S GnTI- cells (Man5-enriched) (HIV-1 clade C strain 426c)
[32] = biological target: HIV-1 Env 426c.TM (N276D.N460D.N463D), Env-pseudotyped virus produced in 293T cells (HIV-1 clade C strain 426c)
[33] = biological target: HIV-1 Env 426c.TM4 (S278R.G471S.N460D.N463D), Env-pseudotyped virus produced in 293S GnTI- cells (Man5-enriched) (HIV-1 clade C strain 426c)
[34] = biological target: HIV-1 Env 426c.TM4 (S278R.G471S.N460D.N463D), Env-pseudotyped virus produced in 293T cells (HIV-1 clade C strain 426c)
[35] = biological target: HIV-1 clade C strain 426c Env on Env-pseudotyped virus produced in 293s/GnTI-/- cells (Man5-enrichment) (HIV-1)

Substance | IC50 (µg/ml) in TZM-bl [1] | IC50 (µg/ml) in TZM-bl [2] | IC50 (µg/ml) in TZM-bl [3] | IC50 (µg/ml) in TZM-bl [4] | IC50 (µg/ml) in TZM-bl [5] | IC50 (µg/ml) in TZM-bl [6] | IC50 (µg/ml) in TZM-bl [7] | IC50 (µg/ml) in TZM-bl [8] | IC50 (µg/ml) in TZM-bl [9] | IC50 (µg/ml) in TZM-bl [10] | IC50 (µg/ml) in TZM-bl [11] | IC50 (µg/ml) in TZM-bl [12] | IC50 (µg/ml) in TZM-bl [13] | ID50/IC50 in TZM-bl [14] | ID50/IC50 in TZM-bl [15] | ID50/IC50 in TZM-bl [16] | ID50/IC50 in TZM-bl [17] | ID50/IC50 in TZM-bl [18] | IC50 (ug/ml) in TZM-bl cells [19] | IC50 (ug/ml) in TZM-bl cells [20] | also measured
CH103 (antibody) | 0.31 µg/mL | 0.18 µg/mL | 1.9 µg/mL | 0.57 µg/mL | 6.4 µg/mL | 0.44 µg/mL | 1.6 µg/mL | 0.19 µg/mL | 0.007 µg/mL | 0.014 µg/mL | 0.009 µg/mL | 0.002 µg/mL | 0.005 µg/mL | 6.1 µg/mL | 0.63 µg/mL | > 40 µg/mL | 5.2 µg/mL | 0.09 µg/mL | 2.6 µg/mL | 0.67 µg/mL | IC50 (ug/ml) in TZM-bl cells [21]: 0.19 µg/mL; IC50 (ug/ml) in TZM-bl cells [22]: 1.6 µg/mL; IC50 (ug/ml) in TZM-bl cells [23]: 0.005 µg/mL; IC50 (ug/ml) in TZM-bl cells [24]: 0.01 µg/mL; IC50 (µg/ml) in TZM-bl [25]: 5.3 µg/mL; IC50 (µg/ml) in TZM-bl [26]: > 40 µg/mL; IC50 (µg/ml) in TZM-bl [27]: 0.63 µg/mL; IC50 (µg/ml) in TZM-bl [28]: 6.1 µg/mL; IC50 (µg/ml) in TZM-bl [29]: 2.2 µg/mL; IC50 (µg/ml) in TZM-bl [30]: > 40 µg/mL; IC50 (µg/ml) in TZM-bl [31]: 0.09 µg/mL; IC50 (µg/ml) in TZM-bl [32]: 5.2 µg/mL; IC50 (µg/ml) in TZM-bl [33]: 0.48 µg/mL; IC50 (µg/ml) in TZM-bl [34]: 3.7 µg/mL; ID50/IC50 in TZM-bl [35]: 5.3 µg/mL
CH235 (antibody) | 0.4 µg/mL | 0.03 µg/mL | 0.3 µg/mL | 0.03 µg/mL | 0.1 µg/mL | < 0.02 µg/mL | 0.16 µg/mL | 0.006 µg/mL | 0.02 µg/mL | 0.086 µg/mL | 0.011 µg/mL | 0.022 µg/mL | 0.004 µg/mL | > 50 µg/mL | > 25 µg/mL | > 50 µg/mL | > 50 µg/mL | > 25 µg/mL | 0.35 µg/mL | 0.03 µg/mL | IC50 (µg/ml) in TZM-bl cells [6]: < 0.005 µg/mL; IC50 (µg/ml) in TZM-bl [19]: 0.35 µg/mL; IC50 (µg/ml) in TZM-bl [20]: < 0.02 µg/mL; IC50 (ug/ml) in TZM-bl cells [21]: 0.006 µg/mL; IC50 (ug/ml) in TZM-bl cells [22]: 0.16 µg/mL; IC50 (ug/ml) in TZM-bl cells [23]: 0.004 µg/mL; IC50 (ug/ml) in TZM-bl cells [24]: 0.022 µg/mL; IC50 (µg/ml) in TZM-bl [25]: > 25 µg/mL; IC50 (µg/ml) in TZM-bl [26]: > 50 µg/mL; IC50 (µg/ml) in TZM-bl [27]: > 25 µg/mL; IC50 (µg/ml) in TZM-bl [28]: > 50 µg/mL; IC50 (µg/ml) in TZM-bl [29]: > 25 µg/mL; IC50 (µg/ml) in TZM-bl [30]: > 50 µg/mL; IC50 (µg/ml) in TZM-bl [31]: > 25 µg/mL; IC50 (µg/ml) in TZM-bl [32]: > 50 µg/mL; IC50 (µg/ml) in TZM-bl [33]: > 25 µg/mL; IC50 (µg/ml) in TZM-bl [34]: > 25 µg/mL; ID50/IC50 in TZM-bl [35]: > 25 µg/mL
